The values that follow come from the nanobody polyreactivity screen of Harvey et al. (2022).

This series can be described thus: yeast display, Sf9 membrane polyspecificity reagent, FACS + sequencing; frameworks hold sequencing errors. The gist of the method: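 Genes from sorted yeast were amplified by colony PCR, read by MiSeq 2 × 250 sequencing and filtered on CDR length. These cells carried a synthetic nanobody library in Saccharomyces cerevisiae BJ5465 and were sorted by FACS into low and high (top ~1%) gates on anti-HA and streptavidin fluorescence. Polyreactivity is labelled according to the gate of origin.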
As for “QVQLVESGGGLVQAGGSLRLSCAASGSIFRKYAMGWYRQATGKERELVAAIRSSGGSTYYADSVKGRFTISRDNAKNTVYLQMNSLKPEDTSVYYWAATTGEHEDFRGQGTQVTVSS”, the “polyreactivity (PSR sort gate)” value is on record as “high polyreactivity”. Next, “QVQLVESGGGLVQAGGSLRLSCAASGSIFRKYVMGWYRQAPGKERELVAAISGSGGRTYYADSVKGRFTISRDNAKNTVYLQMNSLKPEDTAVSYSNAYPHAYTGSTREGDYWGQGTQVTVSS”: “high polyreactivity”. Turning to “QVQLVESGGGLVQAGGSLRLSCAASGSIFRLYGKGLYRQAPGKEREFGASITYRGGNTYYADSVKGRFTISRDNAKNTVYLQMNSLKPEDTAVYYCARSGYQKVGGFRYDYWGQGTQVTVSS”, the “polyreactivity (PSR sort gate)” value is on record as “low polyreactivity”. Next, “QVQLVESGGGLVQAGGSLRLSCAASGSIFRNYAMGWYRQAPGKERELVARISYSGGRTHYADSVKGRFTISRDNAKNTVYLQMNSLKPEDTAVYYCAAPFHFTHFQGNYYWGQGTQVTVSS”: “low polyreactivity”; “QVQLVESGGGLVQAGGSLRLSCAASGSIFRNYAMGWYRQAPGKERELVAVITQRGGRTYYADSVKGRFTISRDNAKNTVYLQMNSLKPEDTAVYYCAASYRGVPEYDSWGQGTQVTVSS”: “low polyreactivity”; “QVQLVESGGGLVQAGGSLRLSCAASGSIFRPNVMGWYRQEPGKERELVATISWSGGSTYYADSVKGRFTISRDNASNTVYLQMNSLKPEDTAVYYCAALWPYGYWGQGTEVTVSS”: “low polyreactivity”. As to “QVQLVESGGGLVQAGGSLRLSCAASGSIFRPYAMGWYRPAPGQDRELVAAISSSGGGTYYADSVKGRFTISRDNAKKTVYLQMNSLKPEDTAVYLYGSWGQGTQVTVSS”, the “polyreactivity (PSR sort gate)” value is recorded as “low polyreactivity”. Next, “QVQLVESGGGLVQAGGSLRLSCAASGSIFRPYAMGWYRQAPGKERELVAAISWRSGRTYYADSVKGRFTISRDNAKNTVYLQMNSLKPEDTAVYYCAADLASYAYRYDYWGQGTQVTVSS”: “high polyreactivity”. As for “QVQLVESGGGLVQAGGSLRLSCAASGSIFRQYAMGLSRQAPGKERELVAAITYSGGNTYYADSVKGRFTISRDNAKNPVYLQLNSLKPEDTAVYYCAADYGSRSWEYTYWGQGTQVTVSS”, the “polyreactivity (PSR sort gate)” value is “low polyreactivity”. Turning to “QVQLVESGGGLVQAGGSLRLSCAASGSIFRQYAMGWYRQAPPKDRELVAAISSVGRTYYADSVKGRFTISRDNAKNTVYLQMNSLKPEDTAVYYCAARPYKFARYDYWGQGTQVTVSS”, the “polyreactivity (PSR sort gate)” value is recorded as “high polyreactivity”. “QVQLVESGGGLVQAGGSLRLSCAASGSIFRRNSMGWYRPAPGKERELVAAISSIGSSTYYADSVKGRFTISRDNAKNTVYLQMNSLKPEDTAVYYCAALYVQGSHTYGYWGQGTQVTVSS”: the “polyreactivity (PSR sort gate)” value is recorded as “high polyreactivity”. For “QVQLVESGGGLVQAGGSLRLSCAASGSIFRRYALGWYRQAPGKERELVAAISYSGGSTYYADSVKGRFTISRDNAKNTVYLQMNSLKPEDTAVYYCAVVTRKGLYDYWGQGTQVTGSS”, the “polyreactivity (PSR sort gate)” value was “high polyreactivity”.

On to “QVQLVESGGGLVQAGGSLRLSCAASGSIFRRYAMGWYRPAPGKERELVAAITNRGGTTYYADSVKGRFTISRDNAKNTVYLQMNSLNPEDTAVYYCATALWVRYYGQGGYIRRYDYWGQGTQVTVSS”, for which the “polyreactivity (PSR sort gate)” value is given as “high polyreactivity”. On to “QVQLVESGGGLVQAGGSLRLSCAASGSIFRRYAMGWYRPAPGTERELVAAISYSGGSTYYADSVKGRFTISRDNAKNTVYLQMNSLKPEDTAVYYCAADESRYDYWGQGTQVTVSS”, for which the “polyreactivity (PSR sort gate)” value is on record as “high polyreactivity”. Next, “QVQLVESGGGLVQAGGSLRLSCAASGSIFRRYAMGWYRQAPGKERELVAAISSNGGSTYYADSVKGRFTISRDNAKNTVYLQMNSLKPEDTAVYYCNAPPLYRDEYWGQGTQVTVSS”: “high polyreactivity”; “QVQLVESGGGLVQAGGSLRLSCAASGSIFRSNAMGWYRQAAGKERELVAAIDYSGTSTTYADSVKGRFTISRDNAKNTVYLQMNSLKPEDTAVYYCNADGYYRGYWSGYEYWGQGTQVTVSS”: “low polyreactivity”; “QVQLVESGGGLVQAGGSLRLSCAASGSIFRSNAMGWYRQAPGKEREFVAAITSRSSSTYYADSVKGRFTISRDNAKNTVYLQMNSLKPEDTAVYYCAARYQHYFTGGDYWGQGTQVTVSS”: “low polyreactivity”. Consider “QVQLVESGGGLVQAGGSLRLSCAASGSIFRSNAMGWYRQAPGKERELVAAITQSGDTTNYADSVKGRFTISRDNAKNTVYLQMNSLKPEDTAVYYCNADTDRYWPYEYDYWGQGTQVTVSS”, for which the “polyreactivity (PSR sort gate)” value is recorded as “low polyreactivity”. Next, “QVQLVESGGGLVQAGGSLRLSCAASGSIFRSNDMGWYRQAPGKERELVARITSSVGSTYYADSVKGRFTISRDNAKNTVYLQMNSLKAEDTAVYYGAKRYYHYPYGYRDYDYWGQGTQVTVSS”: “low polyreactivity”; “QVQLVESGGGLVQAGGSLRLSCAASGSIFRSNTMGWYRQAPGKERELVAGISYSGGSTYADSVKGRFTISRDNAKNTVYLQMNSLKTEDTAVYYCARRVYSYVVLYFSYYYWGQGTQVTVSS”: “low polyreactivity”.

Regarding “QVQLVESGGGLVQAGGSLRLSCAASGSIFRSYAKGWYRQAPGKERELVAAISSSGGRKYYADSVKGRFTISRDNAKNTVYLQMNSLKPEDTAVYYCAAYGAGGYKYDYWGQGTQVTVSS”, the “polyreactivity (PSR sort gate)” value is on record as “low polyreactivity”. “QVQLVESGGGLVQAGGSLRLSCAASGSIFRSYALGWYRQAPGKERELVAAITWSGGRTYYADSVKGRFTISRDNAKNTVYLQMNSLKPEDTAVYYCNADVWWDTWFLDGYDYWGQGTQVTVSS”: the “polyreactivity (PSR sort gate)” value is on record as “high polyreactivity”. In the case of “QVQLVESGGGLVQAGGSLRLSCAASGSIFRSYAMGWYRPAPGKERELVAAISSGGRTKYADSVKGRFTISRDNAKNTVYLQMNSLKPEDTAVYYCAARAYYARFLMGYWGQGTQVTVSS”, the “polyreactivity (PSR sort gate)” value was “high polyreactivity”. For the sequence “QVQLVESGGGLVQAGGSLRLSCAASGSIFRSYAMGWYRQAPGKERELVAAISGRGSNTYYADSVKGRFTISRDNAKNTVYLQMNSLKPEDTAVYYCATRQWVFSHGYWGQGTQVTVSS”, the “polyreactivity (PSR sort gate)” value is given as “high polyreactivity”. “QVQLVESGGGLVQAGGSLRLSCAASGSIFRSYAMGWYRQAPGKERELVAAISRRGGSTYYADSVKGRFTISRDNAKNTVYLQMNSLKPADTAVYYCAADRTGPYDYWGQGTQVTVSS”: the “polyreactivity (PSR sort gate)” value was “high polyreactivity”. As for “QVQLVESGGGLVQAGGSLRLSCAASGSIFRTNAMGWYREAPGKERELVAAITGRGGSTYYADSVKGRFTISRDYAKNTVYLQMNSLKPEDTAVYYCAAAYGTWKFLATTEDYWGQGTQVTVSS”, the “polyreactivity (PSR sort gate)” value is given as “high polyreactivity”. On to “QVQLVESGGGLVQAGGSLRLSCAASGSIFRTNAMGWYRQAPGKERELVAAISRRGSNTYYADSVKGRFTISRDNAKNTVYLLMNSMKPEDTAVYYCAADVSGSKYDYWGQGTQVTVSS”, for which the “polyreactivity (PSR sort gate)” value is given as “high polyreactivity”.

For the sequence “QVQLVESGGGLVQAGGSLRLSCAASGSIFRTYTMGWYRQAPGKERELVAAITRSGGRTFYADSVKGRFTISRDTAKNTVYLQMHSLKPEDTAVYYCAAKRTGDYDWGQGTQVTVSS”, the “polyreactivity (PSR sort gate)” value was “high polyreactivity”. In the case of “QVQLVESGGGLVQAGGSLRLSCAASGSIFRVNTLGWYRQAPGKERELVATISSGARTNYADSVKGRFTISRDNAKNTVDLQLNSLKPEDTAVYYCAADRSWGYWGRSRYDYWGQGTQVTVSS”, the “polyreactivity (PSR sort gate)” value is “high polyreactivity”.

Take “QVQLVESGGGLVQAGGSLRLSCAASGSIFRVNTMGWYRQAPGKERELVAGITSRGGSTYYADSVKGRFTISRDNAKNTVYLQMNSLKPEDTAFYYCANRAYGTALYRGYGYWGQGTQVPVSS”: the “polyreactivity (PSR sort gate)” value is on record as “low polyreactivity”.
